According to patent publication US20140213531A1 (POLYPHOR, published 2014):
Bridges are numbered along the chain shown (N, C = ends). [ ]: non-standard residue; d: D form. Gly(octyl) = CCCCCCCC[C@H](N)C(=O)O; Pro(4NHCOPhe) = not defined here; Cha = N[C@@H](CC1CCCCC1)C(=O)O; Nle = CCCC[C@H](N)C(=O)O

T1: CathepsinG, from human neutrophils (human, UniProt P08311 21-244)
T1 construct: purified natural enzyme, bought
T1 sequence (looked up): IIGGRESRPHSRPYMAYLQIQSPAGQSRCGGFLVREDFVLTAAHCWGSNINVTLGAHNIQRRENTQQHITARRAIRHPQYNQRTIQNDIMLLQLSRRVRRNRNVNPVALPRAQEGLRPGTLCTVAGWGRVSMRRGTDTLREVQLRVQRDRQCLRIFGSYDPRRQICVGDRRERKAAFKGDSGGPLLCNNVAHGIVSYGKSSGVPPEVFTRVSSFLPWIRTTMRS

T2: Chymase, from human skin (human, UniProt P23946 22-247)
T2 construct: purified natural enzyme, bought
T2 sequence (looked up): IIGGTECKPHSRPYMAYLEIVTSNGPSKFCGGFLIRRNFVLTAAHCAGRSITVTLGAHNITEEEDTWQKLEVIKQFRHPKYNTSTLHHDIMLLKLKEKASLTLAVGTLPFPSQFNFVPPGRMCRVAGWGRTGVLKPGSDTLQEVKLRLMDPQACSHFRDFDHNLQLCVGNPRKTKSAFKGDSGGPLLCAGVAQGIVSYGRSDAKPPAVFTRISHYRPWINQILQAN

B1: Example 127 (peptide)
peptide: XCTASIPPQCY
HELM: PEPTIDE1{[Nle].C.T.A.S.I.P.P.Q.C.Y.[dK].E}$PEPTIDE1,PEPTIDE1,2:R3-10:R3|PEPTIDE1,PEPTIDE1,1:R1-13:R2$$$V2.0
SMILES: CCCC[C@@H]1NC(=O)[C@H](CCC(=O)O)NC(=O)[C@@H](CCCCN)NC(=O)[C@H](Cc2ccc(O)cc2)NC(=O)[C@@H]2CSSC[C@H](NC1=O)C(=O)N[C@@H]([C@@H](C)O)C(=O)N[C@@H](C)C(=O)N[C@@H](CO)C(=O)N[C@@H]([C@@H](C)CC)C(=O)N1CCC[C@H]1C(=O)N1CCC[C@H]1C(=O)N[C@@H](CCC(N)=O)C(=O)N2
B2: Example 148 (peptide)
peptide: XCTASXPPQCQ
HELM: PEPTIDE1{[CCCCCCCC[C@H](N[*:1])C(=O)[*:2]].C.T.A.S.[CCCCCCCC[C@H](N[*:1])C(=O)[*:2]].P.P.Q.C.Q.[dP].P}$PEPTIDE1,PEPTIDE1,2:R3-10:R3|PEPTIDE1,PEPTIDE1,1:R1-13:R2$$$V2.0
SMILES: CCCCCCCC[C@@H]1NC(=O)[C@@H]2CCCN2C(=O)[C@H]2CCCN2C(=O)[C@H](CCC(N)=O)NC(=O)[C@@H]2CSSC[C@H](NC1=O)C(=O)N[C@@H]([C@@H](C)O)C(=O)N[C@@H](C)C(=O)N[C@@H](CO)C(=O)N[C@@H](CCCCCCCC)C(=O)N1CCC[C@H]1C(=O)N1CCC[C@H]1C(=O)N[C@@H](CCC(N)=O)C(=O)N2
notes: also called Ex. 148
B3: Example 141 (peptide)
peptide: XCTASXPPQCY
HELM: PEPTIDE1{[Nle].C.T.A.S.[Cha].P.P.Q.C.Y.[dP].P}$PEPTIDE1,PEPTIDE1,2:R3-10:R3|PEPTIDE1,PEPTIDE1,1:R1-13:R2$$$V2.0
SMILES: CCCC[C@@H]1NC(=O)[C@@H]2CCCN2C(=O)[C@H]2CCCN2C(=O)[C@H](Cc2ccc(O)cc2)NC(=O)[C@@H]2CSSC[C@H](NC1=O)C(=O)N[C@@H]([C@@H](C)O)C(=O)N[C@@H](C)C(=O)N[C@@H](CO)C(=O)N[C@@H](CC1CCCCC1)C(=O)N1CCC[C@H]1C(=O)N1CCC[C@H]1C(=O)N[C@@H](CCC(N)=O)C(=O)N2
notes: also called Ex. 141
B4: Example 91 (peptide)
peptide: XCTASIPPQCQ
HELM: PEPTIDE1{[Nle].C.T.A.S.I.P.P.Q.C.Q.[dP].P}$PEPTIDE1,PEPTIDE1,2:R3-10:R3|PEPTIDE1,PEPTIDE1,1:R1-13:R2$$$V2.0
SMILES: CCCC[C@@H]1NC(=O)[C@@H]2CCCN2C(=O)[C@H]2CCCN2C(=O)[C@H](CCC(N)=O)NC(=O)[C@@H]2CSSC[C@H](NC1=O)C(=O)N[C@@H]([C@@H](C)O)C(=O)N[C@@H](C)C(=O)N[C@@H](CO)C(=O)N[C@@H]([C@@H](C)CC)C(=O)N1CCC[C@H]1C(=O)N1CCC[C@H]1C(=O)N[C@@H](CCC(N)=O)C(=O)N2
notes: also called Ex. 91
B5: Example 143 (peptide)
peptide: XCTASIPPQCQ
HELM: PEPTIDE1{[O=C([C@H](CCc1ccccc1)N[*:1])[*:2]].C.T.A.S.I.P.P.Q.C.Q.[dP].P}$PEPTIDE1,PEPTIDE1,2:R3-10:R3|PEPTIDE1,PEPTIDE1,1:R1-13:R2$$$V2.0
SMILES: CC[C@H](C)[C@@H]1NC(=O)[C@H](CO)NC(=O)[C@H](C)NC(=O)[C@H]([C@@H](C)O)NC(=O)[C@@H]2CSSC[C@H](NC(=O)[C@H](CCC(N)=O)NC(=O)[C@@H]3CCCN3C(=O)[C@@H]3CCCN3C1=O)C(=O)N[C@@H](CCC(N)=O)C(=O)N1CCC[C@@H]1C(=O)N1CCC[C@H]1C(=O)N[C@@H](CCc1ccccc1)C(=O)N2
notes: also called Ex. 143
B6: Example 104 (peptide)
peptide: XETASIPPQKY
HELM: PEPTIDE1{[Nle].E.T.A.S.I.P.P.Q.K.Y.[dP].P}$PEPTIDE1,PEPTIDE1,1:R1-13:R2$$$V2.0
SMILES: CCCC[C@@H]1NC(=O)[C@@H]2CCCN2C(=O)[C@H]2CCCN2C(=O)[C@H](Cc2ccc(O)cc2)NC(=O)[C@H](CCCCN)NC(=O)[C@H](CCC(N)=O)NC(=O)[C@@H]2CCCN2C(=O)[C@@H]2CCCN2C(=O)[C@H]([C@@H](C)CC)NC(=O)[C@H](CO)NC(=O)[C@H](C)NC(=O)[C@H]([C@@H](C)O)NC(=O)[C@H](CCC(=O)O)NC1=O
B7: Example 154 (peptide)
peptide: XQTASIPPQTY
HELM: PEPTIDE1{[CCCCCCCC[C@H](N[*:1])C(=O)[*:2]].Q.T.A.S.I.P.P.Q.T.Y.[dP].P}$PEPTIDE1,PEPTIDE1,1:R1-13:R2$$$V2.0
SMILES: CCCCCCCC[C@@H]1NC(=O)[C@@H]2CCCN2C(=O)[C@H]2CCCN2C(=O)[C@H](Cc2ccc(O)cc2)NC(=O)[C@H]([C@@H](C)O)NC(=O)[C@H](CCC(N)=O)NC(=O)[C@@H]2CCCN2C(=O)[C@@H]2CCCN2C(=O)[C@H]([C@@H](C)CC)NC(=O)[C@H](CO)NC(=O)[C@H](C)NC(=O)[C@H]([C@@H](C)O)NC(=O)[C@H](CCC(N)=O)NC1=O
B8: Example 109 (peptide)
peptide: XQTASIPPQTY
HELM: PEPTIDE1{[Nle].Q.T.A.S.I.P.P.Q.T.Y.[dP].P}$PEPTIDE1,PEPTIDE1,1:R1-13:R2$$$V2.0
SMILES: CCCC[C@@H]1NC(=O)[C@@H]2CCCN2C(=O)[C@H]2CCCN2C(=O)[C@H](Cc2ccc(O)cc2)NC(=O)[C@H]([C@@H](C)O)NC(=O)[C@H](CCC(N)=O)NC(=O)[C@@H]2CCCN2C(=O)[C@@H]2CCCN2C(=O)[C@H]([C@@H](C)CC)NC(=O)[C@H](CO)NC(=O)[C@H](C)NC(=O)[C@H]([C@@H](C)O)NC(=O)[C@H](CCC(N)=O)NC1=O
notes: also called Ex. 109
B9: Example 174 (peptide)
peptide: XCTASIPPQCY
HELM: PEPTIDE1{[O=C([C@H](CCc1ccccc1)N[*:1])[*:2]].C.T.A.S.I.P.P.Q.C.Y.[dK].E}$PEPTIDE1,PEPTIDE1,2:R3-10:R3|PEPTIDE1,PEPTIDE1,1:R1-13:R2$$$V2.0
SMILES: CC[C@H](C)[C@@H]1NC(=O)[C@H](CO)NC(=O)[C@H](C)NC(=O)[C@H]([C@@H](C)O)NC(=O)[C@@H]2CSSC[C@H](NC(=O)[C@H](CCC(N)=O)NC(=O)[C@@H]3CCCN3C(=O)[C@@H]3CCCN3C1=O)C(=O)N[C@@H](Cc1ccc(O)cc1)C(=O)N[C@H](CCCCN)C(=O)N[C@@H](CCC(=O)O)C(=O)N[C@@H](CCc1ccccc1)C(=O)N2

biological target: T1, CathepsinG, from human neutrophils; assay: enzyme inhibition, pNA substrate

% inhibition at 100 µM [%]	Binder
64	B1
52	B2
63.4	B3
69	cyclo([Nle]CTAS[Cha]P[Pro(4NHCOPhe)]QCQ[dQ]Q) (disulfide 2-10; reading uncertain, also called Ex. 176) [Example 176]
47	cyclo([Nle]CAASIPPQCY[dP]P) (disulfide 2-10, also called Ex. 86) [Example 86]
45	B4
28	B5
53.5	B6
46	cyclo([Gly(octyl)]ETASIPPQKY[dP]P) (also called Ex. 156) [Example 156]
27	B7
54.1	B8
56	B9

biological target: T3, Trypsin, Iodination grade, from human pancreas (human, UniProt P07477 24-247); assay: enzyme inhibition, pNA substrate
T3 construct: purified natural enzyme, bought

% inhibition at 100 µM [%]	Binder
0	B1
0	B3
0	cyclo([Nle]CAASIPPQCY[dP]P) (disulfide 2-10, also called Ex. 86) [Example 86]
0	B4
12	B5
0	B6
0	cyclo([Gly(octyl)]ETASIPPQKY[dP]P) (also called Ex. 156) [Example 156]
0	B7
0	B8

biological target: T4, Chymotrypsin, from human pancreas (human, UniProt P17538 19-263); assay: enzyme inhibition, pNA substrate
T4 construct: purified natural enzyme, bought
T4 sequence (P17538 19-263): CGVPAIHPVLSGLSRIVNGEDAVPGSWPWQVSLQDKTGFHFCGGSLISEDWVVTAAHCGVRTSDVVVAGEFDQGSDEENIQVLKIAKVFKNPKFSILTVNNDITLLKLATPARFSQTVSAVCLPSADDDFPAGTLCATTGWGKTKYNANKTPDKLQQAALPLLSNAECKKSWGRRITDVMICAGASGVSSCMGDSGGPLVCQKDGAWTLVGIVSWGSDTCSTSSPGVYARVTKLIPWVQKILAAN

% inhibition at 100 µM [%]	Binder
47.2	B1
91	B2
72.9	B3
55	cyclo([Nle]CTAS[Cha]P[Pro(4NHCOPhe)]QCQ[dQ]Q) (disulfide 2-10; reading uncertain, also called Ex. 176) [Example 176]
91	B5
13.8	B8
85	B9

biological target: T2, Chymase, from human skin; assay: enzyme inhibition, pNA substrate

% inhibition at 100 µM [%]	Binder
0	B3
0	cyclo([Nle]CAASIPPQCY[dP]P) (disulfide 2-10, also called Ex. 86) [Example 86]
0	B5
0	B6
0	cyclo([Gly(octyl)]ETASIPPQKY[dP]P) (also called Ex. 156) [Example 156]
0	B7
0	B9

biological target: Thrombin, from Human Plasma, high activity (human, UniProt P00734 328-622); assay: enzyme inhibition, pNA substrate

% inhibition at 100 µM [%]	Binder
32	B2
0	B3
15	cyclo([Nle]CTAS[Cha]P[Pro(4NHCOPhe)]QCQ[dQ]Q) (disulfide 2-10; reading uncertain, also called Ex. 176) [Example 176]
10.7	cyclo([Nle]CAASIPPQCY[dP]P) (disulfide 2-10, also called Ex. 86) [Example 86]
13.5	B4
12	B5
17	cyclo([Gly(octyl)]ETASIPPQKY[dP]P) (also called Ex. 156) [Example 156]
0	B8
11	B9

biological target: T5, Coagulation Factor Xa, from uman plasma (human, UniProt P00742 41-179; P00742 235-488, limits assumed); assay: enzyme inhibition, pNA substrate
T5 construct: purified natural enzyme, bought; also called FXa
T5 sequence (P00742 41-179 limits assumed, chain 1 of 2): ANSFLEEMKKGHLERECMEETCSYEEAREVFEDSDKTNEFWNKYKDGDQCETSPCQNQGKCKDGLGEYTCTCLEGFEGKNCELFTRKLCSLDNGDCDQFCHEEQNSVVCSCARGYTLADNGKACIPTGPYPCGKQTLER
T5 sequence (P00742 235-488 limits assumed, chain 2 of 2): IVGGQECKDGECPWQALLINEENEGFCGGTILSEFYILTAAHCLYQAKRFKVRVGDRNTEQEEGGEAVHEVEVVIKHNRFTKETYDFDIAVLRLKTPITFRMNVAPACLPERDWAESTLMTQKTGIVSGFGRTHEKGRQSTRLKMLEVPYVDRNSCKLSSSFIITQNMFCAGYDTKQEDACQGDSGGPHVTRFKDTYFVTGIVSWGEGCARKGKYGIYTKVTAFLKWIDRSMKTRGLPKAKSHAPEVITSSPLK

% inhibition at 100 µM [%]	Binder
13.3	B1
15.3	B3
24.8	cyclo([Nle]CAASIPPQCY[dP]P) (disulfide 2-10, also called Ex. 86) [Example 86]
19.4	B4
0	B5
0	cyclo([Gly(octyl)]ETASIPPQKY[dP]P) (also called Ex. 156) [Example 156]
0	B7

biological target: T6, Urokinase from human urine (human, UniProt P00749 21-431, limits assumed); assay: enzyme inhibition, pNA substrate
T6 construct: purified natural enzyme, bought

% inhibition at 100 µM [%]	Binder
12	B2
0	B6

biological target: T7, Tryptase, from human lung (human, UniProt Q15661 31-275, limits assumed); assay: enzyme inhibition, pNA substrate
T7 construct: purified natural enzyme, bought
T7 sequence (Q15661 31-275 limits assumed): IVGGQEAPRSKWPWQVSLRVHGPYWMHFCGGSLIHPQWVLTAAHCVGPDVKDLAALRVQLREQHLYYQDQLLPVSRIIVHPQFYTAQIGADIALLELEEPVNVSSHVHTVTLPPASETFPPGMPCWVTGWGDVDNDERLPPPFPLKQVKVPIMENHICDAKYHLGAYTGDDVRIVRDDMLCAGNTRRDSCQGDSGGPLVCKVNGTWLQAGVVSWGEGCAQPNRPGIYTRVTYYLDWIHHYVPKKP

% inhibition at 100 µM [%]	Binder
0	B1
30	B2
44.5	B3
17	cyclo([Nle]CTAS[Cha]P[Pro(4NHCOPhe)]QCQ[dQ]Q) (disulfide 2-10; reading uncertain, also called Ex. 176) [Example 176]
0	cyclo([Nle]CAASIPPQCY[dP]P) (disulfide 2-10, also called Ex. 86) [Example 86]
18	B5
0	B6
15	cyclo([Gly(octyl)]ETASIPPQKY[dP]P) (also called Ex. 156) [Example 156]
15	B7
10	B9
